Measurements from patent US20150056162A1.

Assays:
[1] = target: IL-13Rα1 ectodomain (amino acids 1-310), biotinylated (human) (UniProt P78552); assay: SPR; equilibrium; settings: ligand
[2] = target: IL-13Rα1 ectodomain (amino acids 1-310), biotinylated (human) (UniProt P78552); assay: SPR; kinetic; settings: ligand

IL-13Rα1 ectodomain (amino acids 1-310), biotinylated (human), sequence (P78552 other isoform, or with tags, fused parts or gaps): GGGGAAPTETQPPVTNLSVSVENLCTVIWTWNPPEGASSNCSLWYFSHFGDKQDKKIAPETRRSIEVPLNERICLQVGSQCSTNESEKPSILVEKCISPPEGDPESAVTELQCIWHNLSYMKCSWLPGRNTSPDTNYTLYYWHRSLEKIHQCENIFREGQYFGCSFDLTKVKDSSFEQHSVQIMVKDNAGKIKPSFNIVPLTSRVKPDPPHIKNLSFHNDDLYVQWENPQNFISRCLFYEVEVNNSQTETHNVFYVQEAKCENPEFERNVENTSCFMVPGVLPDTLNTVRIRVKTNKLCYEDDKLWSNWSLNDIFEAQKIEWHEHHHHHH

| Kd [1] [nM] | Kd [2] [nM] | Substance |
| --- | --- | --- |
| 1600 |  | IL-13 variant C11 (from UniProt P35225 34-146) |
|  | 4.38 | wild-type human IL-13 (from UniProt P35225 34-146) |
| 36000 |  | IL-13 variant C4 (from UniProt P35225 34-146) |
